{"source": "the RNAGym collection of RNA variant scans (doi:10.7554/elife.80360)", "parents": {"B1": {"name": "Twister Ribozyme (parent)", "chain": "AACACUGCCAAUGCCGGUCCCAAGCCCGGAUAAAAGUGGAGGGGGCGG"}}, "data": [{"variants_of": "B1", "experiment": "self-cleavage, relative activity (ratio to wild type); higher = more cleavage; co-transcriptional", "values": [{"variant": "U6C G43A", "self-cleavage": 0.0844}, {"variant": "U6C G43U", "self-cleavage": 0.134}, {"variant": "U6C G43C", "self-cleavage": 0.128}, {"variant": "G7C C9U", "self-cleavage": 0.101}, {"variant": "G7C C9G", "self-cleavage": 0.0747}, {"variant": "U6C G7C", "self-cleavage": 0.0439}, {"variant": "C8A G13U", "self-cleavage": 0.261}, {"variant": "C8A G13A", "self-cleavage": 0.359}, {"variant": "G7U U37A", "self-cleavage": 0.0497}, {"variant": "U6G C26G", "self-cleavage": 0.0499}, {"variant": "G7A A30G", "self-cleavage": 0.405}, {"variant": "G7C G43C", "self-cleavage": 0.0825}, {"variant": "C8A G43U", "self-cleavage": 0.119}, {"variant": "C8A G43A", "self-cleavage": 0.177}, {"variant": "G7C A11C", "self-cleavage": 0.0664}, {"variant": "G7C A11U", "self-cleavage": 0.0693}, {"variant": "G7A G43C", "self-cleavage": 0.123}, {"variant": "G7A G43A", "self-cleavage": 0.176}, {"variant": "G7A C21U", "self-cleavage": 0.103}, {"variant": "G7A C21A", "self-cleavage": 0.059}, {"variant": "C8A C27U", "self-cleavage": 0.101}, {"variant": "U6G", "self-cleavage": 0.486}, {"variant": "U6G G45U", "self-cleavage": 0.129}, {"variant": "U6G G45C", "self-cleavage": 0.104}, {"variant": "U6G C8A", "self-cleavage": 0.212}, {"variant": "G7C U18A", "self-cleavage": 0.0787}, {"variant": "U6G A40G", "self-cleavage": 0.137}, {"variant": "U6C G13C", "self-cleavage": 0.107}, {"variant": "U6C G13U", "self-cleavage": 0.0523}, {"variant": "U6C G13A", "self-cleavage": 0.0845}, {"variant": "G7U A10C", "self-cleavage": 0.117}, {"variant": "C8A G39C", "self-cleavage": 0.148}, {"variant": "C8A G39A", "self-cleavage": 0.154}, {"variant": "G7U A23U", "self-cleavage": 0.0674}, {"variant": "G7C G29C", "self-cleavage": 0.0533}, {"variant": "G7C G29A", "self-cleavage": 0.0857}, {"variant": "G7U G47U", "self-cleavage": 0.0775}, {"variant": "G7U G47C", "self-cleavage": 0.0954}, {"variant": "U6G G43U", "self-cleavage": 0.184}, {"variant": "G7C G41C", "self-cleavage": 0.0623}, {"variant": "G7C G41U", "self-cleavage": 0.0511}, {"variant": "G7A G42U", "self-cleavage": 0.136}, {"variant": "G7C G28U", "self-cleavage": 0.093}, {"variant": "G7C G28A", "self-cleavage": 0.0408}, {"variant": "G7U G42U", "self-cleavage": 0.0886}, {"variant": "G7A G29C", "self-cleavage": 0.12}, {"variant": "G7A G29U", "self-cleavage": 0.339}, {"variant": "G7A G41U", "self-cleavage": 0.11}, {"variant": "G7A G24U", "self-cleavage": 0.0739}, {"variant": "C8A G38U", "self-cleavage": 0.169}, {"variant": "G7C A35U", "self-cleavage": 0.0701}, {"variant": "G7C A35C", "self-cleavage": 0.064}, {"variant": "C8A A10G", "self-cleavage": 0.734}, {"variant": "C8A A10C", "self-cleavage": 0.594}, {"variant": "G7A G47U", "self-cleavage": 0.19}, {"variant": "G7A G47C", "self-cleavage": 0.185}, {"variant": "G7U G45U", "self-cleavage": 0.087}, {"variant": "G7U G45A", "self-cleavage": 0.0748}, {"variant": "G7U C8G", "self-cleavage": 0.114}, {"variant": "U6G C9U", "self-cleavage": 0.163}, {"variant": "U6G C9G", "self-cleavage": 0.171}, {"variant": "G7A G39U", "self-cleavage": 0.15}, {"variant": "G7A G39C", "self-cleavage": 0.141}, {"variant": "G7A G39A", "self-cleavage": 0.171}, {"variant": "G7A A22U", "self-cleavage": 0.103}, {"variant": "G7A A22C", "self-cleavage": 0.519}, {"variant": "G7A A22G", "self-cleavage": 0.0675}, {"variant": "U6C G39A", "self-cleavage": 0.273}, {"variant": "U6C G39C", "self-cleavage": 0.136}, {"variant": "U6C G39U", "self-cleavage": 0.114}, {"variant": "U6C G16C", "self-cleavage": 0.146}, {"variant": "U6C G16A", "self-cleavage": 0.318}, {"variant": "C8A C46G", "self-cleavage": 0.353}, {"variant": "C8A C46A", "self-cleavage": 0.167}, {"variant": "G7A G17A", "self-cleavage": 0.083}, {"variant": "G7A G17U", "self-cleavage": 0.103}, {"variant": "G7A C27A", "self-cleavage": 0.112}, {"variant": "G7A A10G", "self-cleavage": 0.982}, {"variant": "G7A A10C", "self-cleavage": 0.459}, {"variant": "G7A A10U", "self-cleavage": 0.505}, {"variant": "U6C U37C", "self-cleavage": 0.0955}, {"variant": "U6C U37A", "self-cleavage": 0.131}, {"variant": "U6G G42C", "self-cleavage": 0.156}, {"variant": "U6G G42U", "self-cleavage": 0.0829}, {"variant": "G7C U37C", "self-cleavage": 0.0652}, {"variant": "G7A A33G", "self-cleavage": 0.243}, {"variant": "G7A A33C", "self-cleavage": 0.211}, {"variant": "C8A A34C", "self-cleavage": 0.189}, {"variant": "G7C C8G", "self-cleavage": 0.0684}, {"variant": "G7C C8U", "self-cleavage": 0.0597}, {"variant": "U6G C21U", "self-cleavage": 0.0405}, {"variant": "U6G C21A", "self-cleavage": 0.0289}, {"variant": "U6G A22U", "self-cleavage": 0.136}, {"variant": "U6G A33U", "self-cleavage": 0.234}, {"variant": "U6G A33G", "self-cleavage": 0.199}, {"variant": "U6G A34C", "self-cleavage": 0.539}, {"variant": "U6G A34G", "self-cleavage": 0.392}, {"variant": "G7U U31G", "self-cleavage": 0.131}, {"variant": "G7U U31A", "self-cleavage": 0.133}, {"variant": "U6G G7C", "self-cleavage": 0.873}, {"variant": "G7U C21U", "self-cleavage": 0.0705}, {"variant": "G7U C21G", "self-cleavage": 0.0215}, {"variant": "U6G G47U", "self-cleavage": 0.151}, {"variant": "C8A C20G", "self-cleavage": 0.0882}, {"variant": "G7A C25A", "self-cleavage": 0.0809}, {"variant": "G7A C25G", "self-cleavage": 0.237}, {"variant": "G7U C15A", "self-cleavage": 0.0847}, {"variant": "G7A C15G", "self-cleavage": 0.0625}, {"variant": "G7C G45U", "self-cleavage": 0.0816}, {"variant": "G7A U37A", "self-cleavage": 0.144}, {"variant": "G7A U37C", "self-cleavage": 0.111}, {"variant": "G7A U37G", "self-cleavage": 0.162}, {"variant": "C8A A33U", "self-cleavage": 0.28}, {"variant": "C8A A33G", "self-cleavage": 0.228}, {"variant": "C8A C26U", "self-cleavage": 0.098}, {"variant": "G7U G48A", "self-cleavage": 0.078}, {"variant": "U6G G16A", "self-cleavage": 0.226}, {"variant": "U6C U18C", "self-cleavage": 0.0688}, {"variant": "U6C U18G", "self-cleavage": 0.0358}, {"variant": "G7A G36A", "self-cleavage": 0.109}, {"variant": "C8A U18C", "self-cleavage": 0.0479}, {"variant": "G7U G38U", "self-cleavage": 0.103}, {"variant": "G7U G38C", "self-cleavage": 0.0818}, {"variant": "C8A C15U", "self-cleavage": 0.365}, {"variant": "C8A C15G", "self-cleavage": 0.0688}, {"variant": "G7C G38C", "self-cleavage": 0.0787}, {"variant": "G7C G38U", "self-cleavage": 0.071}, {"variant": "G7C G38A", "self-cleavage": 0.0835}, {"variant": "G7U C25A", "self-cleavage": 0.224}, {"variant": "G7U C25U", "self-cleavage": 0.302}, {"variant": "G7U A32U", "self-cleavage": 0.101}, {"variant": "G7U A32G", "self-cleavage": 0.0756}, {"variant": "U6G A32U", "self-cleavage": 0.405}, {"variant": "U6G U31A", "self-cleavage": 0.169}, {"variant": "U6G U31C", "self-cleavage": 0.365}, {"variant": "U6G A11U", "self-cleavage": 0.381}, {"variant": "C8G A22U", "self-cleavage": 0.157}, {"variant": "C8G A22G", "self-cleavage": 0.0585}, {"variant": "G7A C14G", "self-cleavage": 0.0811}, {"variant": "G7A C14U", "self-cleavage": 0.43}, {"variant": "G7C C26G", "self-cleavage": 0.0717}, {"variant": "G7C C26A", "self-cleavage": 0.0601}, {"variant": "G7C G48C", "self-cleavage": 0.0656}, {"variant": "U6G G36U", "self-cleavage": 0.0341}, {"variant": "U6G G36C", "self-cleavage": 0.0766}, {"variant": "C8A U12A", "self-cleavage": 0.475}, {"variant": "G7U A34C", "self-cleavage": 0.0467}, {"variant": "G7U A34G", "self-cleavage": 0.0851}, {"variant": "G7U C26G", "self-cleavage": 0.0462}, {"variant": "G7U C26A", "self-cleavage": 0.0629}, {"variant": "C8G", "self-cleavage": 0.558}, {"variant": "C8A", "self-cleavage": 0.61}, {"variant": "U6G G44U", "self-cleavage": 0.242}, {"variant": "G7U A33U", "self-cleavage": 0.109}, {"variant": "C8A C25U", "self-cleavage": 0.125}, {"variant": "C8A C25G", "self-cleavage": 0.0894}, {"variant": "G7A C20U", "self-cleavage": 0.116}, {"variant": "U6G U18C", "self-cleavage": 0.131}, {"variant": "U6G U18A", "self-cleavage": 0.0684}, {"variant": "U6G G48A", "self-cleavage": 0.24}, {"variant": "U6G G48C", "self-cleavage": 0.358}, {"variant": "C8A A11C", "self-cleavage": 0.514}, {"variant": "C8A A11G", "self-cleavage": 0.588}, {"variant": "C8A A11U", "self-cleavage": 0.7}, {"variant": "G7U C9U", "self-cleavage": 0.0542}, {"variant": "G7C A40C", "self-cleavage": 0.0472}, {"variant": "G7C A40U", "self-cleavage": 0.0764}]}]}
